Experimental data: FireProtDB (doi:10.1002/pro.398)

Settings: Gallus gallus, Thermal, CD, whole UniProt chain shown

B1: Ovalbumin wild type, P01012 (protein)
chain: MGSIGAASMEFCFDVFKELKVHHANENIFYCPIAIMSALAMVYLGAKDSTRTQINKVVRFDKLPGFGDSIEAQCGTSVNVHSSLRDILNQITKPNDVYSFSLASRLYAEERYPILPEYLQCVKELYRGGLEPINFQTAADQARELINSWVESQTNGIIRNVLQPSSVDSQTAMVLVNAIVFKGLWEKAFKDEDTQAMPFRVTEQESKPVQMMYQIGLFRVASMASEKMKILELPFASGTMSMLVLLPDEVSGLEQLESIINFEKLTEWTSSNVMEERKIKVYLPRMKMEEKYNLTSVLMAMGITDVFSSSANLSGISSAESLKISQAVHAAHAEINEAGREVVGSAEAGVDAASVSEEFRADHPFLFCIKHIATNAVLFFGRCVSP
Tm (pH 7, Phosphate 10 mM): 69.8 °C | Tm (pH 10, Glycine-NaOH 0.1 M): 78.9 °C
